Experimental data from FireProtDB (doi:10.1006/jmbi.2001.4956).

B1: Guanyl-specific ribonuclease Sa3, P30289 (parent)
chain: MRIPPRLVALAGAAAVAATLIAGPVAAAAPASHAVAASSAASASVKAVGRVCYSALPSQAHDTLDLIDEGGPFPYSQDGVVFQNREGLLPAHSTGYYHEYTVITPGSPTRGARRIITGQQWQEDYYTADHYASFRRVDFAC
B2: Guanyl-specific ribonuclease Sa, P05798 (parent)
chain: DVSGTVCLSALPPEATDTLNLIASDGPFPYSQDGVVFQNRESVLPTQSYGYYHEYTVITPGARTRGTRRIITGEATQEDYYTGDHYATFSLIDQTC

Variants of: B1
Conditions: Kitasatospora aureofaciens; pH 7; 25 °C; Thermal; CD; MOPS 30 mM; reversible: yes(>95 %); structure 1MGR; whole UniProt chain shown

Row | Variant | ddG of mutation (higher = less stable)
1 | MRIPPRLVALAGAAAVAATLIAGPVAAAAPASHAVAASSAASASVKAVGRVCYSALPSQAHDTLDLIDEGGPFPYSQDGVVFQNREGLLPAHSTGYYHEYTVITPGSPTRGARRIITGQQWQEDYFTADHYASFRRVDFAC [Y126F] | 1 kcal/mol
2 | MRIPPRLVALAGAAAVAATLIAGPVAAAAPASHAVAASSAASASVKAVGRVCYSALPSQAHDTLDLIDEGGPFPFSQDGVVFQNREGLLPAHSTGYYHEYTVITPGSPTRGARRIITGQQWQEDYYTADHYASFRRVDFAC [Y75F] | -0.5 kcal/mol
3 | MRIPPRLVALAGAAAVAATLIAGPVAAAAPASHAVAASSAASASVKAVGRVCYSALPSQAHDTLDLIDEGGPFPYSQDGVVFQNREGLLPAHSTGYYHEYTVITPGSPTRGARRIITGQQWQEDYYTADHFASFRRVDFAC [Y131F] | 0 kcal/mol
4 | MRIPPRLVALAGAAAVAATLIAGPVAAAAPASHAVAASSAASASVKAVGRVCYSALPSQAHDTLDLIDEGGPFPYSQDGVVFQNREGLLPAHSTGYYHEYTVITPGSPTRGARRIITGQQWQEDFYTADHYASFRRVDFAC [Y125F] | 1.5 kcal/mol
5 | MRIPPRLVALAGAAAVAATLIAGPVAAAAPASHAVAASSAASASVKAVGRVCYSALPSQAHDTLDLIDEGGPFPYSQDGVVFQNREGLLPAHSTGYFHEYTVITPGSPTRGARRIITGQQWQEDYYTADHYASFRRVDFAC [Y97F] | 2.1 kcal/mol
6 | MRIPPRLVALAGAAAVAATLIAGPVAAAAPASHAVAASSAASASVKAVGRVCYSALPSQAHDTLDLIDEGGPFPYSQDGVVFQNREGLLPAHSTGYYHEFTVITPGSPTRGARRIITGQQWQEDYYTADHYASFRRVDFAC [Y100F] | 0.7 kcal/mol

Variants of: B2
Conditions: Kitasatospora aureofaciens; pH 7; 25 °C; Thermal; CD; MOPS 30 mM; reversible: yes(>95 %); structure 1RGG; whole UniProt chain shown

Row | Variant | ddG of mutation (higher = less stable)
7 | DVSGTVCLSALPPEATDTLNLIASDGPFPYSQDGVVFQNRESVLPTQSYGYFHEYTVITPGARTRGTRRIITGEATQEDYYTGDHYATFSLIDQTC [Y52F] | 3.6 kcal/mol
8 | DVSGTVCLSALPPEATDTLNLIASDGPFPYSQDGVVFQNRESVLPTQSYGYYHEFTVITPGARTRGTRRIITGEATQEDYYTGDHYATFSLIDQTC [Y55F] | 0.6 kcal/mol
9 | DVSGTVCLSALPPEATDTLNLIASDGPFPYSQDGVVFQNRESVLPTQSYGYYHEYTVITPGARTRGTRRIITGEATQEDFYTGDHYATFSLIDQTC [Y80F] | 1.5 kcal/mol
10 | DVSGTVCLSALPPEATDTLNLIASDGPFPYSQDGVVFQNRESVLPTQSFGYYHEYTVITPGARTRGTRRIITGEATQEDYYTGDHYATFSLIDQTC [Y49F] | 0.2 kcal/mol
11 | DVSGTVCLSALPPEATDTLNLIASDGPFPYSQDGVVFQNRESVLPTQSYGYYHEYTVITPGARTRGTRRIITGEATQEDYFTGDHYATFSLIDQTC [Y81F] | 1.2 kcal/mol
12 | DVSGTVCLSALPPEATDTLNLIASDGPFPYSQDGVVFQNRESVLPTQSYGYYHEYTVITPGARTRGTRRIITGEATQEDYYTGDHFATFSLIDQTC [Y86F] | 0.3 kcal/mol
13 | DVSGTVCLSALPPEATDTLNLIASDGPFPFSQDGVVFQNRESVLPTQSYGYYHEYTVITPGARTRGTRRIITGEATQEDYYTGDHYATFSLIDQTC [Y30F] | -0.4 kcal/mol
